From US6949349
Positions of bridges follow the written chain, without caps; N, C: chain ends. No end group written: not given here.

Legend:
IGFBP-3 = target: T1, IGFBP-3 (human, UniProt P17936 28-291); assay: BIAcore competition: peptide inhibits IGFBP-3 binding to IGF-I; the reference itself
T1 construct: also called rhIGFBP-3

IGFBP-1 [1] = target: T2, IGFBP-1 (human, UniProt P08833 26-259); assay: ELISA plate assay (starred peptide): peptide inhibits IGFBP-1 binding to IGF-I; ratio against bp1-14
T2 construct: Biotinylated in the ELISA assays; also called rhIGFBP-1
T2 sequence (looked up): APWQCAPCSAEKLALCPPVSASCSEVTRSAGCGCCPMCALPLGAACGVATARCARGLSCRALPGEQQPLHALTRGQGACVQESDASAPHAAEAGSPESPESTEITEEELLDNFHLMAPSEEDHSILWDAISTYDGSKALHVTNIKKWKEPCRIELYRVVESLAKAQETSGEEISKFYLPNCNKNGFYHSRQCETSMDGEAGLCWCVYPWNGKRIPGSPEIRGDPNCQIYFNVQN

IGFBP-1 [2] = target: T2, IGFBP-1; assay: ELISA plate assay (starred peptide): peptide inhibits IGFBP-1 binding to IGF-I; ratio against bp1-16
[3] = target: T3, recombinant human IGFBP-1 (human, UniProt P08833 26-259); assay: cell-based or functional assay
T3 sequence (looked up): T2 sequence (looked up)

[4] = target: T3, recombinant human IGFBP-1; assay: ELISA: peptide dilutions with 20 nM biotinylated IGFBP-1 on IGF-I coated plate
Text: (§1) The peptide/IGFBP mix was then removed and the plate was washed ten times with PBS buffer containing 0.05% TWEEN-20™ surfactant.

[5] = target: T4, recombinant human IGFBP-3 (human, UniProt P17936 28-291); assay: BIAcore competition: peptide dilutions with 20 nM IGFBP-3 over immobilized IGF-II
T4 construct: also called rhIGFBP-3
T4 sequence (P17936 28-291 limits assumed): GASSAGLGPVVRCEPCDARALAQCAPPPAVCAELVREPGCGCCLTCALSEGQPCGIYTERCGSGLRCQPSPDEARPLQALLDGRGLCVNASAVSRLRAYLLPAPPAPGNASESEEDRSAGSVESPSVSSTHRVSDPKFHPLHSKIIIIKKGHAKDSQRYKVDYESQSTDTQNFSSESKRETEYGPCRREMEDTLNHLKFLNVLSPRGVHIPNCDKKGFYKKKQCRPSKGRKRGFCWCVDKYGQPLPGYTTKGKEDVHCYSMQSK
Protocol: IGF-II was immobilized on a dextran chip for inhibition assays using a BIAcore™ 2000 surface-plasmon-resonance device (BIAcore, Inc., Piscataway, N.J.) to measure free binding protein. IGF-II was biotinylated as described above, and injected over a chip to which streptavidin had been coupled (BIAcore, Inc.) to give approximately 1500 RU of immobilized IGF-II. […] After incubation for ≧1 hour at room temperature, an aliquot of 20 µl was injected at a flow rate of 20 µl/min over the IGF-II chip.

IGFBP-1 [6] = target: T2, IGFBP-1; assay: ELISA competition: peptide inhibits IGFBP-1 binding to IGF-I; ratio to bp1-01 (wt)
IGFBP-1 [7] = target: T2, IGFBP-1; assay: ELISA competition: peptide inhibits IGFBP-1 binding to IGF-I; the reference itself
IGFBP-1 [8] = target: T2, IGFBP-1; assay: ELISA plate assay: peptide inhibits IGFBP-1 binding to IGF-I; the reference itself
IGFBP-1 [9] = target: T2, IGFBP-1; assay: BIAcore competition: peptide inhibits IGFBP-1 binding to IGF-I; position 3 is Ala in the wt
IGFBP-1 [10] = target: T2, IGFBP-1; assay: biotinylated-IGFBP-1 ELISA: peptide inhibits IGFBP-1 binding to IGF-I; the reference itself
Text: as §1

IGFBP-1 [11] = target: T2, IGFBP-1; assay: BIAcore competition: peptide inhibits IGFBP-1 binding to IGF-II; the reference itself
IGFBP-1 [12] = target: T2, IGFBP-1; assay: BIAcore competition: peptide inhibits IGFBP-1 binding to IGF-II; position 3 is Ala in the wt
IGFBP-1 [13] = target: T2, IGFBP-1; assay: BIAcore competition: peptide inhibits IGFBP-1 binding to IGF-I; the reference itself
[14] = target: T4, recombinant human IGFBP-3; assay: cell-based or functional assay
IGFBP-1 [15] = target: T2, IGFBP-1; assay: BIAcore competition: peptide inhibits IGFBP-1 binding to IGF-I; ratio against bp1-14
IGFBP-1 [16] = target: T2, IGFBP-1; assay: BIAcore competition: peptide inhibits IGFBP-1 binding to IGF-I; the reference bp1-16 itself
[17] = target: T3, recombinant human IGFBP-1; assay: phage ELISA titration on IGFBP-1 plate with IGF-I (FIG. 28)
Protocol: The plates were then washed ten times, as above, and a solution of rabbit anti-phage antibody mixed with a goat-anti-rabbit conjugate of horse radish peroxidase was added. After an incubation of 1 hour at room temperature, the plates were developed with a chromogenic substrate, o-phenylenediamine (Sigma). The reaction was stopped with addition of ½ volume of 2.5 M H_2SO_4. Optical density at 490 nm was measured on a spectrophotometric plate reader.

T1 sequence (P17936 28-291 limits assumed): as above

B1: bp3-01-ox (peptide)
peptide: SEEVCWPVAEWYLCNMWG
modifications: disulfide 5-14
- IC50 (mut)/IC50 (wt) (IGFBP-3): 1 ratio

B2: bp1-19 (peptide)
peptide: SEMVCRAGPLQWLCEIYF-NH2
modifications: disulfide 5-14 (inferred)
notes: g3 bp1-01 selectant
- IC50 (114)/IC50 (mut) (IGFBP-1 [1]): 2.1 ratio
- IC50 (116)/IC50 (mut) (IGFBP-1 [2]): 9.9 ratio

B3: bp1-01 (peptide)
peptide: CRAGPLQWLCEKYFG-NH2
modifications: disulfide 1-10; N-terminus assumed
SMILES: CC(C)C[C@@H]1NC(=O)[C@H](Cc2c[nH]c3ccccc23)NC(=O)[C@H](CCC(N)=O)NC(=O)[C@H](CC(C)C)NC(=O)[C@@H]2CCCN2C(=O)CNC(=O)[C@H](C)NC(=O)[C@H](CCCNC(=N)N)NC(=O)[C@@H](N)CSSC[C@@H](C(=O)N[C@@H](CCC(=O)O)C(=O)N[C@@H](CCCCN)C(=O)N[C@@H](Cc2ccc(O)cc2)C(=O)N[C@@H](Cc2ccccc2)C(=O)NCC(N)=O)NC1=O
notes: also called bp1-01 (bp3)
- IC50, KIRA assay (peptide plus IGF-I plus IGFBP-1) [3]: 397 nM
- IC50 [4]: 180 nM

B4: bp1-02 (peptide)
peptide: SEVGCRAGPLQWLCEKYFG-NH2
modifications: disulfide 5-14; N-terminus assumed
SMILES: CC(C)C[C@@H]1NC(=O)[C@H](Cc2c[nH]c3ccccc23)NC(=O)[C@H](CCC(N)=O)NC(=O)[C@H](CC(C)C)NC(=O)[C@@H]2CCCN2C(=O)CNC(=O)[C@H](C)NC(=O)[C@H](CCCNC(=N)N)NC(=O)[C@@H](NC(=O)CNC(=O)[C@@H](NC(=O)[C@H](CCC(=O)O)NC(=O)[C@@H](N)CO)C(C)C)CSSC[C@@H](C(=O)N[C@@H](CCC(=O)O)C(=O)N[C@@H](CCCCN)C(=O)N[C@@H](Cc2ccc(O)cc2)C(=O)N[C@@H](Cc2ccccc2)C(=O)NCC(N)=O)NC1=O
notes: 19-mer variant of bp1-01; also called bp1-02 (bp3)
- IC50, KIRA assay (peptide plus IGF-I plus IGFBP-1) [3]: 187 nM
- IC50 [4]: 50 nM

B5: BP3-4D3.11 (peptide)
peptide: VAWEVCWDRHDQGYICTTDS
modifications: disulfide 6-16
notes: Synthetic peptide corresponding to phage clone 4D3.11 (g8) and 3Bi.1 (g3); also called BP14; BP3-4D3.11 (BP14)
- IC50 [5]: 1000 nM

B6: bp1-18 (peptide)
peptide: CRAGPLQWLCEKAA
- IC50 (mut)/IC50 (wt) (IGFBP-1 [6]): 148 ratio

B7: bp1-01 (peptide)
peptide: CRAGPLQWLCEKYFG-NH2
modifications: disulfide 1-10; N-terminus assumed
SMILES: CC(C)C[C@@H]1NC(=O)[C@H](Cc2c[nH]c3ccccc23)NC(=O)[C@H](CCC(N)=O)NC(=O)[C@H](CC(C)C)NC(=O)[C@@H]2CCCN2C(=O)CNC(=O)[C@H](C)NC(=O)[C@H](CCCNC(=N)N)NC(=O)[C@@H](N)CSSC[C@@H](C(=O)N[C@@H](CCC(=O)O)C(=O)N[C@@H](CCCCN)C(=O)N[C@@H](Cc2ccc(O)cc2)C(=O)N[C@@H](Cc2ccccc2)C(=O)NCC(N)=O)NC1=O
notes: Synthetic 15-mer; also called (wt); A3
- IC50 (mut)/IC50 (wt) (IGFBP-1 [7]): 1 ratio
- IC50 (mut)/IC50 (wt) (IGFBP-1 [8]): 1 ratio
- IC50 (mut)/IC50 (wt) (IGFBP-1 [9]): 1 ratio
- IC50 (mut)/IC50 (wt) (IGFBP-1 [10]): 1 ratio
- IC50 (mut)/IC50 (wt) (IGFBP-1 [11]): 1 ratio
- IC50 (mut)/IC50 (wt) (IGFBP-1 [12]): 1 ratio
- IC50 (mut)/IC50 (wt) (IGFBP-1 [13]): 1 ratio

B8: BP15 (peptide)
peptide: SEEVCWPVAEWYLCN
modifications: disulfide 5-14
- IC50, KIRA assay (peptide with IGFBP-3:IGF-1 at a 3:1 ratio) [14]: 95000 nM

B9: bp1-16 (peptide)
peptide: CRAGPLQWLCEKYF-NH2
modifications: disulfide 1-10 (inferred)
notes: bp1-01 lacking the C-terminal Gly
- IC50 (114)/IC50 (mut) (IGFBP-1 [15]): 0.21 ratio
- IC50 (116)/IC50 (mut) (IGFBP-1 [16]): 1 ratio

B10: peptide-phage clone HL-1 (g8 display) (peptide, not shown: large carriers)
chain: SEVGCRAGPLQWLCEKYF
modifications: not fully specified (C-terminus, bridges); cysteine pairing not given here; also: polyvalent display on phage particle
notes: Tested as a whole phage particle with polyvalent display; also called g8-phage peptide bp1-01
- binding result [17]: binds
